The target of assay [1] is T1, rat serum albumin (rat, UniProt P02770 25-608).
T1 construct: also called Rat SA; RSA
The experiment in a line: SPR, albumin immobilized, Adnectin 250 nM. On the technique in general: Surface plasmon resonance follows binding to a sensor surface in real time, without labels.

Assay [2] concerns the target T2, human serum albumin (human, UniProt P02768 25-609).
T2 construct: immobilized on chips or coated on plates elsewhere; also called HSA; HuSA
As to the kind of experiment: SPR, albumin immobilized, Adnectin 250 nM.

The target of assay [3] is T3, mouse serum albumin (mouse, UniProt P07724 25-608).
T3 construct: also called MSA; MuSA
The experiment in a line: SPR, albumin immobilized, Adnectin 250 nM.

Assay [4] concerns the target T4, rhesus serum albumin (rhesus, UniProt Q28522 17-600).
T4 construct: also called RhSA; Rh-SA
The experiment in a line: SPR, albumin immobilized, Adnectin 250 nM.

The target in assay [5] is T5, human PCSK9 (human, UniProt Q8NBP7 31-692).
T5 construct: also called hPCSK9; huPCSK9
The experiment in a line: BLI (Octet), biotinylated PCSK9 on tips, tandem in complex with excess HSA. For orientation: In BLI a coated tip is dipped into the sample, and binding shifts an interference pattern.

Assay [6] deals with T5, human PCSK9. As to the kind of experiment: BLI (Octet), biotinylated PCSK9 on tips, no HSA.
In assay [7] the target is T5, human PCSK9. As to the kind of experiment: PCSK9:EGFA FRET 2, competition.
For assay [8], the target named is T5, human PCSK9. The experiment in a line: PCSK9:LDLR FRET, competition.
The target of assay [9] is T2, human serum albumin. As to the kind of experiment: SPR, albumin immobilized, HBSP pH 7.4.
Assay [10] concerns the target T3, mouse serum albumin. The experiment in a line: SPR, albumin immobilized, HBSP pH 7.4.
Assay [11] has as its target T4, rhesus serum albumin. As to the kind of experiment: SPR, albumin immobilized, HBSP pH 7.4.
Assay [12] addresses T5, human PCSK9. The experiment in a line: PCSK9:EGFA FRET 1, competition.
The target of assay [13] is T2, human serum albumin. The experiment in a line: direct binding ELISA, albumin coated. For orientation: An ELISA detects its analyte on a solid surface through an enzyme-linked reagent.
Assay [14] has as its target T3, mouse serum albumin. As to the kind of experiment: direct binding ELISA, albumin coated.
Assay [15] deals with T4, rhesus serum albumin. The experiment in a line: direct binding ELISA, albumin coated.
The target in assay [16] is T2, human serum albumin. As to the kind of experiment: SPR, albumin immobilized, acetate pH 7.4.
Assay [17] addresses T3, mouse serum albumin. As to the kind of experiment: SPR, albumin immobilized, acetate pH 7.4.
Assay [18] deals with T4, rhesus serum albumin. As to the kind of experiment: SPR, albumin immobilized, acetate pH 7.4.
Assay [19] addresses T2, human serum albumin. The experiment in a line: SPR, albumin immobilized, acetate pH 5.5.
The target in assay [20] is T3, mouse serum albumin. As to the kind of experiment: SPR, albumin immobilized, acetate pH 5.5.
The target in assay [21] is T4, rhesus serum albumin. The experiment in a line: SPR, albumin immobilized, acetate pH 5.5.
The target in assay [22] is T2, human serum albumin. As to the kind of experiment: SPR, albumin immobilized.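 Further: biacore SPR with human, rhesus or mouse serum albumin amine-coupled to the chip (about 1200 RU), 3 min association, 6-10 min dissociation, reference-subtracted traces fitted with a 1:1 model.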
The target in assay [23] is T3, mouse serum albumin. The experiment in a line: SPR, albumin immobilized.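 Further: biacore SPR with human, rhesus or mouse serum albumin amine-coupled to the chip (about 1200 RU), 3 min association, 6-10 min dissociation, reference-subtracted traces fitted with a 1:1 model.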
The target of assay [24] is T4, rhesus serum albumin. As to the kind of experiment: SPR, albumin immobilized.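 Further: biacore SPR with human, rhesus or mouse serum albumin amine-coupled to the chip (about 1200 RU), 3 min association, 6-10 min dissociation, reference-subtracted traces fitted with a 1:1 model.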

Experimental findings from patent publication US20200048328A1 (Bristol-Myers Squibb, published 2020) are described below.

Changes are numbered by the printed parent chain.

B1: 5963_D01.PS5-2 (designed binder)
chain: MGVSDVPRDLEVVCATPTSLLISWDAPAVTVRYYRITYGREVQKYSDLGPLYIYQEFTVPGSKSTATISGLKPGVDYTITVYAVTGSGESPASSKPISINYRTPHHHHHH
For B1, the dissociation rate constant (koff) (usually the first-order rate constant of dissociation) in assay [1] is 0.000858 s⁻¹; in [2], 0.000247 s⁻¹; in [3], 0.000499 s⁻¹; in [4] it was 0.000313 s⁻¹.

B2: 5963_E02.PS5-2 (designed binder)
chain: B1 chain with C14A, T65C
As to B2, the koff in assay [1] was found to be 0.00076 s⁻¹; in assay [2], 0.000228 s⁻¹; in [3], 0.000461 s⁻¹; in [4], 0.000284 s⁻¹.

B3: 5963_E01.PS5-2 (designed binder)
chain: B1 chain with C14A, T67C
B3: the off-rate (koff) in assay [1] turned out to be 0.000848 s⁻¹; in assay [2], 0.00025 s⁻¹; in assay [3], 0.000507 s⁻¹; in assay [4], 0.000313 s⁻¹.

B4: 5963_A02.PS5-2 (designed binder)
chain: MGCSTSGVSDVPRDLEVVAATPTSLLISWDAPAVTVRYYRITYGREVQKYSDLGPLYIYQEFTVPGSKSTATISGLKPGVDYTITVYAVTGSGESPASSKPISINYRTPHHHHHH
Regarding B4, the off-rate constant (koff) in assay [1] was 0.000902 s⁻¹; in assay [2] it was 0.000253 s⁻¹; in assay [3], 0.000492 s⁻¹; in [4] it was 0.000313 s⁻¹.

B5: PCSK9-PKE2 tandem 4472_E06 (designed binder)
PCSK9 domain: MGVSDVPRDLEVVAATPTSLLISWDAPAEGYGYYRITYGETGGNSPVQEFTVPVSKGTATISGLKPGVDYTITVYAVEFDFPGAGYYHRPISINYRTE
PKE2 domain: GVSDVPRDLEVVAATPTSLLISWDAPAVTVRYYRITYGREVQKYSDLGPLYIYQEFTVPGSKSTATISGLKPGVDYTITVYAVTGSGESPASSKPISINYRTEHHHHHH
modifications: The real molecule is ONE polypeptide: PCSK9 domain, undisclosed linker I (a code letter), PKE2 domain. It is given here as two chains because the linker letters are unknown.
notes: also called 4427_E06; not shown: The inter-domain linker
Take B5: the Kd (as a rule, a measure of binding affinity in units of concentration) in assay [5] is 1 nM; in [6], 0.724 nM; in [9], 61.4 nM; in [10], 21.8 nM; in assay [11], 64.9 nM; in [16] it was 64.9 nM. The dissociation constant Kd in [17] amounted to 26.1 nM; in [18] it was 65.4 nM; in [19] it was 35.2 nM; in [20] it was 114 nM; in assay [21], 91.1 nM; in assay [22], 68.4 nM. For the same molecule, the Kd in assay [23] came out at 20 nM; in [24], 71.9 nM. Further, the koff in assay [5] stood at 0.000209 s⁻¹; in assay [6], 0.0002 s⁻¹; in assay [9] it was 0.000292 s⁻¹; in [10] it was 0.00033 s⁻¹; in assay [11], 0.000332 s⁻¹; in assay [16], 0.000383 s⁻¹. Also, the koff in [17] is 0.000362 s⁻¹; in [18] it was 0.000408 s⁻¹; in assay [19] it was 0.000478 s⁻¹; in assay [20], 0.00152 s⁻¹; in assay [21], 0.000788 s⁻¹; in assay [22], 0.000362 s⁻¹. Moreover, the koff amounted to 0.0003 s⁻¹ in assay [23] and 0.000415 s⁻¹ in assay [24]. Moreover, the kon (as a rule, the rate constant with which the complex forms) in assay [5] worked out at 207000 M⁻¹ s⁻¹; in assay [6], 281000 M⁻¹ s⁻¹; in assay [9] it was 4760 M⁻¹ s⁻¹; in assay [10], 15200 M⁻¹ s⁻¹; in assay [11], 5110 M⁻¹ s⁻¹; in assay [16], 5910 M⁻¹ s⁻¹. In addition, the kon in assay [17] is 14100 M⁻¹ s⁻¹; in [18], 6240 M⁻¹ s⁻¹; in assay [19], 13600 M⁻¹ s⁻¹; in [20], 13400 M⁻¹ s⁻¹; in [21], 8640 M⁻¹ s⁻¹; in [22] it was 5300 M⁻¹ s⁻¹. Further, the kon in assay [23] came to 15000 M⁻¹ s⁻¹; in assay [24], 5770 M⁻¹ s⁻¹. Moreover, the values for the concentration for half-maximal inhibition (IC50) in assay [7], in [8] and in assay [12] were 5.68 nM, 1.6 nM and 7.67 nM, respectively. Besides, the concentration for a half-maximal effect (EC50) (in general, the concentration giving half of the maximal effect) in [13] was found to be 67.3 nM; in assay [14] it was 4.2 nM; in [15], 40.1 nM.

B6: PCSK9-PKE2 tandem 4472_D06 (designed binder)
PCSK9 domain: B5 PCSK9 domain
PKE2 domain: B5 PKE2 domain
notes: not shown: The inter-domain linker; In the real molecule the two parts below are one polypeptide joined by this linker
Turning to B6, the half-maximal inhibitory concentration (IC50) – broadly, the concentration needed to halve the response being measured – is 6.51 nM in [7], 1.8 nM in assay [8] and 8.12 nM in [12]. In addition, the values for the EC50 in assay [13], in assay [14] and in assay [15] were 139 nM, 15.6 nM and 93.1 nM, respectively.

B7: PCSK9-PKE2 tandem 4472_D08 (designed binder, not shown: small tags and cut ends)
PCSK9 10Fn3: B5 PCSK9 domain
PKE2 10Fn3: B5 PKE2 domain
modifications: The two parts are one polypeptide in the real molecule, joined by the undisclosed linker N; they are given here as separate chains.
In the case of B7, the half-maximal inhibitory concentration (IC50) in [7] was 5.22 nM; in assay [8] it was 1.7 nM; in assay [12] it was 6.32 nM. For the same molecule, the EC50 in assay [13] worked out at 80.2 nM; in [14], 9.5 nM; in [15], 54.1 nM.

B8: PCSK9-PKE2 tandem 4472_A04 (designed binder)
PCSK9 domain: B5 PCSK9 domain
PKE2 domain: B5 PKE2 domain
notes: as for B6
As to B8, the 50% inhibitory concentration (IC50) in assay [7] amounted to 4.44 nM; in assay [8], 1.1 nM; in assay [12], 5.14 nM. Also, the figures for the EC50 in assay [13], in assay [14] and in assay [15] were 144 nM, 16.7 nM and 84 nM, respectively.

B9: PCSK9-PKE2 tandem 4472_E04 (designed binder, not shown: small tags and cut ends)
PCSK9 10Fn3: B5 PCSK9 domain
PKE2 10Fn3: B5 PKE2 domain
modifications: The two parts are one polypeptide in the real molecule, joined by the undisclosed linker Q; they are given here as separate chains.
On to B9, for which the IC50 was 7.54 nM in assay [7], 2 nM in assay [8] and 9.45 nM in [12]. Further, the values for the EC50 in [13], in assay [14] and in [15] were 101 nM, 8.9 nM and 64.8 nM, respectively.

B10: PCSK9-PKE2 tandem 4472_B03 (designed binder)
PCSK9 domain: B5 PCSK9 domain
PKE2 domain: B5 PKE2 domain
notes: as for B6
With B10, the IC50 in [7] is 4.83 nM; in assay [8], 1.4 nM; in [12] it was 7.45 nM. For the same molecule, the EC50 came to 124 nM in [13], 14.8 nM in [14] and 98.2 nM in [15].

B11: PCSK9-PKE2 tandem 4472_B05 (designed binder, not shown: small tags and cut ends)
PCSK9 10Fn3: B5 PCSK9 domain
PKE2 10Fn3: B5 PKE2 domain
modifications: The two parts are one polypeptide in the real molecule, joined by the undisclosed linker O; they are given here as separate chains.
Take B11: the IC50 in assay [7] turned out to be 5.55 nM; in assay [8], 1.9 nM; in [12], 6.66 nM. In addition, the concentration giving a half-maximal response (EC50) in [13] worked out at 85.1 nM; in assay [14], 9.3 nM; in assay [15], 59.5 nM.

B12: PCSK9-PKE2 tandem 4472_E05 (designed binder, not shown: small tags and cut ends)
PCSK9 10Fn3: B5 PCSK9 domain
PKE2 10Fn3: B5 PKE2 domain
modifications: The two parts are one polypeptide in the real molecule, joined by the undisclosed linker R; they are given here as separate chains.
Turning to B12, the figures for the 50% inhibitory concentration (IC50) in [7], in [8] and in assay [12] were 4.35 nM, 1.5 nM and 5.66 nM, respectively. Besides, the EC50 in assay [13] worked out at 102 nM; in assay [14], 13.1 nM; in assay [15], 63.1 nM.

B13: PCSK9-PKE2 tandem 4472_H11 (designed binder, not shown: small tags and cut ends)
PCSK9 10Fn3: B5 PCSK9 domain
PKE2 10Fn3: B5 PKE2 domain
modifications: The two parts are one polypeptide in the real molecule, joined by the undisclosed linker P (a code, not a proline); they are given here as separate chains.
As for B13, the IC50 in assay [7] was found to be 6.24 nM; in assay [8], 1.3 nM; in [12], 8.76 nM. Also, the EC50 in assay [13] turned out to be 85.3 nM; in assay [14], 13.2 nM; in [15] it was 58.1 nM.

B14: 5916_E03.PS5-2 (designed binder)
chain: MGVSDVPRDLEVVAATPTSLLISWDAPAVTVRYYRITYGREVQKYSDLGPLYIYQEFTVPGSKSTATISGLKPGVDYTITVYAVTGSGESPASSKPISINYRTPCHHHHHH
Consider B14, for which the dissociation rate constant (koff) in assay [1] is 0.000786 s⁻¹; in assay [2] it was 0.000211 s⁻¹; in [3], 0.000452 s⁻¹; in assay [4], 0.000272 s⁻¹.

B15: 5916_A04.PS5-2 (designed binder)
chain: MGVSDVPRDLEVVAATPTSLLISWDAPAVTVRYYRITYGREVQKYSDLGPLYIYQEFTVPGSKSTATISGLKPGVDYTITVYAVTGSGESPASSKPISINYRTPEDEDGCHHHHHH
Regarding B15, the dissociation rate constant (koff) in assay [1] came to 0.000547 s⁻¹; in assay [2], 0.000148 s⁻¹; in assay [3], 0.000307 s⁻¹; in [4], 0.000172 s⁻¹.
